Results reported in paper PMC3671583.

Experiments:
Assay in all cases: fluorescence anisotropy
NZF-1-F2F3 = NZF-1-F2F3 (Rattus norvegicus, UniProt P70475 487-584)
CCHFC NZF-1-F2F3 = CCHFC NZF-1-F2F3 (Rattus norvegicus, UniProt P70475 487-584, H522A;H523F;H567F)
CCFHC NZF-1-F2F3 = CCFHC NZF-1-F2F3 (Rattus norvegicus, UniProt P70475 487-584, H515F;H559F)
MyT1-F2F3 = MyT1-F2F3 (Rattus norvegicus, UniProt D3ZYT5 425-521)

CCHFC NZF-1-F2F3, sequence (P70475 487-584 H522A/H523F/H567F): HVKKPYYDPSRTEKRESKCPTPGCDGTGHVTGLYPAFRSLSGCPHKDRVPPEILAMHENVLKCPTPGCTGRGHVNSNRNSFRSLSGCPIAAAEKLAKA
NZF-1-F2F3, sequence (P70475 487-584): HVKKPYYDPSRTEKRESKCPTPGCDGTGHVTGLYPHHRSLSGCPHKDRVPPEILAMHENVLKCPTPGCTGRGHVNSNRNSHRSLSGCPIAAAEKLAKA
CCFHC NZF-1-F2F3, sequence (P70475 487-584 H515F/H559F): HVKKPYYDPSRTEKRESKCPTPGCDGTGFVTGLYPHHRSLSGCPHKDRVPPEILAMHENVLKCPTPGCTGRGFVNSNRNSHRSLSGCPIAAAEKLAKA

Row | Binder | Kd (NZF-1-F2F3) [nM] | binding result (CCHFC NZF-1-F2F3) | binding result (CCFHC NZF-1-F2F3) | Kd (MyT1-F2F3) [nM] | binding result (NZF-1-F2F3)
1 | β-RAR DNA (dsDNA) DNA 1: CACCGAAAGTTCACTC DNA 2: GAGTGAACTTTCGGTG | 14 | no binding | no binding | 1300 | –
2 | random DNA (dsDNA) DNA 1: TGTTTCTGCCTCTGT DNA 2: ACAGAGGCAGAAACA | – | no binding | no binding | 910 | no binding
